From patent US20200239541A1 (XYPHOS BIOSCIENCES, published 2020)
Numbering of substitutions follows the chain as printed. Numbers in names are those of the source.

T1: biotinylated human NKG2D (Example 1) (human, UniProt P26718 78-216)
T1 construct: also called recombinant biotinylated NKG2D
T1 sequence (looked up): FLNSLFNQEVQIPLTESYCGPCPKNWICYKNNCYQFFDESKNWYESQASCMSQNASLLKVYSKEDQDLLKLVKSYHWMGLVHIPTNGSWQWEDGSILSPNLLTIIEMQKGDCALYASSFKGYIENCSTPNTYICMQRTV

T2: NKG2D on the human NK cell line NKL (human, UniProt P26718 1-216)
T2 sequence (looked up): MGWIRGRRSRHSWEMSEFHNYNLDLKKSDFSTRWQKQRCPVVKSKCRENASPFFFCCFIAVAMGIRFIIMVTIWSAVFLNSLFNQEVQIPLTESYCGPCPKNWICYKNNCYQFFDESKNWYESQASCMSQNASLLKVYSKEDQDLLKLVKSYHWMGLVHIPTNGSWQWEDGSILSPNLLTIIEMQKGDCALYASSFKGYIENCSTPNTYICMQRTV

T3: human NKG2D-Fc (human, UniProt P26718 78-216)
T3 construct: also called natural NKG2D-Fc; not shown: Fc
T3 sequence (looked up): T1 sequence (looked up)

T4: MICB-Fc (R&D Systems) (human, UniProt Q29980 23-298)
T4 construct: not shown: Fc of the bought reagent
T4 sequence (looked up): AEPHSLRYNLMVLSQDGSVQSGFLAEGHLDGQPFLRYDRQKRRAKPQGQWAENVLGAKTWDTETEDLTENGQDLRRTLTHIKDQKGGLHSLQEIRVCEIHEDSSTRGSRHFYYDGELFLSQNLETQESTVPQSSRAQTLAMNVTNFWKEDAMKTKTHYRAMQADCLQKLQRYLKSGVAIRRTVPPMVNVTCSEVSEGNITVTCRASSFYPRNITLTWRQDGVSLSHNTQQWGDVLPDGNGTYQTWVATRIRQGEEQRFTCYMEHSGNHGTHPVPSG

T5: ULBP1-Fc (R&D Systems) (human, UniProt Q9BZM6 26-216)
T5 construct: not shown: Fc of the bought reagent
T5 sequence (looked up): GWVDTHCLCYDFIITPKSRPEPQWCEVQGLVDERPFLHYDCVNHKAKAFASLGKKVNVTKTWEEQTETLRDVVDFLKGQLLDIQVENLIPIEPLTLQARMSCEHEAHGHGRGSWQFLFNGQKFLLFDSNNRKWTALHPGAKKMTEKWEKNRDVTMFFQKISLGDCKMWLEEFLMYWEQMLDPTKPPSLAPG

T6: ULBP2-Fc (R&D Systems) (human, UniProt Q9BZM5 26-217)
T6 construct: not shown: Fc of the bought reagent
T6 sequence (looked up): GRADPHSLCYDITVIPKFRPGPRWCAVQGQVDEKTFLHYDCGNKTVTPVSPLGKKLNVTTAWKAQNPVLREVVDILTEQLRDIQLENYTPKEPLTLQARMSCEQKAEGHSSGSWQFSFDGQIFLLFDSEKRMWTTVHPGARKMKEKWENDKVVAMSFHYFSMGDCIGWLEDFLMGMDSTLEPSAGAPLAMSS

T7: ULBP3-Fc (R&D Systems) (human, UniProt Q9BZM4 30-217)
T7 construct: not shown: Fc of the bought reagent
T7 sequence (looked up): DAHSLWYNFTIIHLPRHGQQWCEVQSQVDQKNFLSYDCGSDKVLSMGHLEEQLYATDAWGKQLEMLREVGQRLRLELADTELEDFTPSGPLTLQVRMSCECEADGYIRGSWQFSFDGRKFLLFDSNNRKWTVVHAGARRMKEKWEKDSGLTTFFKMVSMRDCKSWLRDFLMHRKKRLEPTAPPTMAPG

T8: ULBP4-Fc (R&D Systems) (human, UniProt Q8TD07 31-225)
T8 construct: not shown: Fc of the bought reagent
T8 sequence (looked up): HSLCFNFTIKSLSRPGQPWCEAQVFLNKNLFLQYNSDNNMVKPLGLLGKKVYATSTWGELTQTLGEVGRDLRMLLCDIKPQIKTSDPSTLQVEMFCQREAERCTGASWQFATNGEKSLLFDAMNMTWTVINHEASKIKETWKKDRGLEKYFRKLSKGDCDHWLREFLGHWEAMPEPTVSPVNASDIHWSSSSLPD

B1: α1-α2 variant 16 (His-tagged, with attached heterologous polypeptide) (ligand)
chain: EPHSLRYNLTVLSWDGSVQSGFLTEVHLDGQPFLRCDRQKCRAKPQGQWAEDVLGNKTWDRETRDLTGWGKDLRMTLAHIKDQKEGLHSLQEIRVCEIHEDNSTRSSQHFYYDGELFLSQNLETLEWTMPQSSRAQTLAMNVRNFLKEDAMETDTHYHAMRADCLQELRRYLKSGVVLRRTVPPMVQVTRSEASGGSGDRVTITCRASQDVSTAVAWYQQKPGKAPKLLIYSASFLYSGVPSRFSGSGSGTDFTLTISSLQPEDFATYYCQQSYTTPPTFGQGTKVEIKGGSSRSSSSGGGGSGGGGEVQLVESGGGLVQPGGSLRLSCAASGFTFTSTGISWVRQAPGKGLEWVGRIYPTNGSTNYADSVKGRFTISADTSKNTAYLQMNSLRAEDTAVYYCARTYGIYDLYVDYTEYVMDYWGQGTLVTVSSGGSSRSSSSGGGGSGGGGDIQMTQSPSSLSASGGSGQITVTCRASGFYPWNITLSWRQDGVSLSHDTQQWGDVLPDGQGTYQTWVATRISQGEEQRFTCYMEHSGQHSTHPVPSGKGSHHHHHH
B2: α1-α2 variant 17 (His-tagged, with attached heterologous polypeptide) (ligand)
chain: B1 chain with G68L
B3: α1-α2 variant 18 (His-tagged, with attached heterologous polypeptide) (ligand)
chain: B1 chain with S20P, G68L
B4: double Y152A plus Y199A mutant NKG2D ectodomain (His-avitag, biotinylated) (receptor)
chain: EPHHHHHHGLNDIFEAQKIEWHENSLFNQEVQIPLTESYCGPCPKNWICYKNNCYQFFDESKNWYESQASCMSQNASLLKVYSKEDQDLLKLVKSAHWMGLVHIPTNGSWQWEDGSILSPNLLTIIEMQKGDCALYASSFKGAIENCSTPNTYICMQRTV
notes: not shown: N-terminal His-avitag
B5: Y199A mutant NKG2D ectodomain (His-avitag, biotinylated) (receptor)
chain: B4 chain with A96Y
notes: as for B4
B6: Y152A mutant NKG2D ectodomain (His-avitag, biotinylated) (receptor)
chain: B4 chain with A143Y
notes: also called Y152A non-natural NKG2D receptor; not shown: N-terminal His-avitag

The binders below were run against T1, biotinylated human NKG2D (Example 1) (assay: BLI (Octet)).

Binder | fold affinity increase relative to WT α1-α2 [fold] | fold reduction in off-rate relative to WT [fold]
B1 | ~30 | 18
B2 | ~30 | 18
B3 | ~30 | 18

Each binder was assayed against T2, NKG2D on the human NK cell line NKL (assay: cell-based or functional assay).

Binder | NKL cell-mediated lysis of FGFR3-expressing P815 cells (calcein release) [fold]
B1 | ~15
B2 | ~15
B3 | ~15

Each binder was assayed against T1, biotinylated human NKG2D (Example 1) (assay: BLI (Octet), Kd = kOFF/kON).

Binder | Kd [nM]
B1 | 0.5
B2 | 0.4
B3 | 0.4

What follows are binders tested against T3, human NKG2D-Fc (assay: competition ELISA vs coated WT sMICA).
Excerpt: (§1) To the NKG2DLs in the above example, we directly attached heterologous molecules such as a polypeptide to each of these 4 modified α1-α2 NKG2DLs using a linker peptide. Four His-tagged proteins (SEQ ID NOs.: 25-28) consisting of modified NKG2DLs with attached heterologous molecules were expressed in insect cells and purified to characterize their NKG2D binding affinities and kinetic binding parameters. Using a competitive binding ELISA, we determined the relative NKG2D binding affinities of the 4 modified α1-α2 variants.

Binder | fold better binding than WT NKG2DL [fold]
B1 | 27
B2 | 32
B3 | 38

What follows are binders tested against T4, MICB-Fc (R&D Systems) (assay: ELISA, ligand-Fc coated, biotinylated NKG2D titrated).
Method: (§2) In addition to purifying the above 3 Fc-fusion proteins NKG2D ligand-Fc fusion proteins MICB-Fc, ULBP1-Fc, ULBP2-Fc, ULBP3-Fc, and ULBP4-Fc were purchased from R&D Systems, Inc. (Minneapolis, Minn.). Binding of the different α1-α2 domain-Fc fusions to both natural and non-natural NKG2D ectodomain proteins was analyzed using a plate-based ELISA method. All of the natural and non-natural α1-α2 domain-Fc fusions were coated overnight at 4° C. onto separate wells of Maxisorp 96 well plates using a coating concentration of 2 μg/ml in phosphate-buffered saline (PBS). The plates were washed 3-times in PBS/0.05% Tween20 at 20-22° C., and blocked with 0.5% bovine serum albumin for 2 hours. The biotinylated natural and non-natural NKG2D receptor proteins were titrated against the plate-bound NKG2D ligands for 2 hours at 20-22° C., washed 3 times with PBS/0.05% Tween20 at 20-22° C., and the bound NKG2D proteins subsequently detected using a streptavidin-HRP secondary detection step and developed with 1-Step Ultra TMB Elisa.

Binder | binding result
B4 | no binding
B5 | no binding
B6 | no binding

The binders below were run against T5, ULBP1-Fc (R&D Systems) in the same assay as above.
Method: as §2

Binder | binding result
B4 | no binding
B5 | no binding
B6 | no binding

Each binder was assayed against T6, ULBP2-Fc (R&D Systems) in the same assay as above.
Method: as §2

Binder | binding result
B4 | no binding
B5 | no binding
B6 | no binding

Each binder was assayed against T7, ULBP3-Fc (R&D Systems) in the same assay as above.
Method: as §2

Binder | binding result
B4 | no binding
B5 | no binding
B6 | no binding

The binders below were run against T8, ULBP4-Fc (R&D Systems) in the same assay as above.
Method: as §2

Binder | binding result
B4 | no binding
B5 | no binding
B6 | no binding

What follows are binders tested against T3, human NKG2D-Fc (assay: competition ELISA vs coated WT sMICA, 2 nM human NKG2D-Fc).
Excerpt: as §1

Binder | IC50 [nM]
B1 | 0.7
B2 | 0.6
B3 | 0.5

The binders below were run against T1, biotinylated human NKG2D (Example 1) (assay: BLI (Octet), biotinylated human NKG2D coated, 100 nM analyte).

Binder | koff [s⁻¹] | kon [M⁻¹ s⁻¹]
B1 | 9e-05 | 200000
B2 | 7e-05 | 200000
B3 | 9e-05 | 230000
